This note sets out measurements from patent US20240148901A1.

The assay addresses Recombinant gp120JR-FL (MyBioSource) (HIV). Description: modified gp120 ELISA: gp120JR-FL coated plate, NanoLuc luminescence read-out. (An ELISA detects its analyte on a solid surface through an enzyme-linked reagent.)

As for “secreted PGT121-NanoLuc, purified (antibody)”, the sensitivity of the gp120 ELISA was determined as 500 pg/mL.
